Patent US20050221433A1
Where a chain is given by its changes, count along the chain named. Names may count otherwise.

B1: mIL18BPd (C45S).mFc (Fc fusion, not shown: a dimerising Fc or GST)
chain: TSAPQTTATVLTGSSKDPSSSWSPAVPTKQYPALDVIWPEKEVPLNGTLTLSCTACSRFPYFSILYWLGNGSFIEHLPGRLKEGHTSREHRNTSTWLHRALVLEELSPTLRSTNFSCLFVDPGQVAQYHIILAQLWDGLKTAPPPSQETLSSHSPVSRSAGPGVA
B2: mIL18BPd.mFc (Fc fusion, not shown: a dimerising Fc or GST)
chain: B1 chain with S19C

Target: recombinant human IL-18 (human) (UniProt Q14116)
Assay: cell-based or functional assay

Chain of recombinant human IL-18 (human) (Q14116 37-193 limits assumed): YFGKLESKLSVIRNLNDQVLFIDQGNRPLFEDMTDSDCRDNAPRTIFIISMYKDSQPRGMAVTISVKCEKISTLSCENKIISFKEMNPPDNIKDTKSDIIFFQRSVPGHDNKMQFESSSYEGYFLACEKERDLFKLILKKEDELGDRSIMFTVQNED

Binder | IC50 (M), HEK293/NFkB-luciferase bioassay
B1 | 1.67e-10 M
B2 | 9.6e-11 M
